Data: publication PMC3599065

Target: kinesin-1 (endogenous, Neuro2a), Q61768;O88447
Test: co-immunoprecipitation with anti-GFP antibody, western blot for KHC, quantified
Conditions: chain shown with the change, lysates of Neuro2a cells expressing GFP-JIP1 constructs, kinesin-1 signal normalized to precipitated GFP-JIP1, n > 3

Sequence of kinesin-1 (endogenous, Neuro2a), Q61768;O88447 (chain, as listed by the source, chain 1 of 2): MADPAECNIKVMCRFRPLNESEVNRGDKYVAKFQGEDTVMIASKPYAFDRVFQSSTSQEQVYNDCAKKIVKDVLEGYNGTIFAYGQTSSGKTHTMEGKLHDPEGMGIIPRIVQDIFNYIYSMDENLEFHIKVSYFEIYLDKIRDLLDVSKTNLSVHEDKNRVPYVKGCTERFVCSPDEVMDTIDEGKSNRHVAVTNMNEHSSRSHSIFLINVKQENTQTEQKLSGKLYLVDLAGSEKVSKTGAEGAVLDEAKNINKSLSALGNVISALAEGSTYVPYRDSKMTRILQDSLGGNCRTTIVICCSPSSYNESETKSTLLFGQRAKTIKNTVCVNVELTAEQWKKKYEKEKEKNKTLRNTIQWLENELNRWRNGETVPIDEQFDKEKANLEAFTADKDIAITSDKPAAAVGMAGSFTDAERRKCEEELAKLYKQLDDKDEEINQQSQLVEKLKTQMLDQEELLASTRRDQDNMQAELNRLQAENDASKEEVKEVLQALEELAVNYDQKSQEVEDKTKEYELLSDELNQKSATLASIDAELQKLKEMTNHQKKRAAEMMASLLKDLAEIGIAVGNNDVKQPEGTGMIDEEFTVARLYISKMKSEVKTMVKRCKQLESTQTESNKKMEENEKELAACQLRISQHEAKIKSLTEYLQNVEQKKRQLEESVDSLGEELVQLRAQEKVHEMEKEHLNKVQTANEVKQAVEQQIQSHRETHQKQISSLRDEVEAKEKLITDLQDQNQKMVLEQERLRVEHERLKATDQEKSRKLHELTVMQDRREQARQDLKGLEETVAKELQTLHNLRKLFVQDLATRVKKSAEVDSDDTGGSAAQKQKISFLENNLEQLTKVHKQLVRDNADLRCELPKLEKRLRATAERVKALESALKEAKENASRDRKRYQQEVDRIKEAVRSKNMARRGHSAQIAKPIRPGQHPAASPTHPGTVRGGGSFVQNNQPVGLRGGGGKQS
Sequence of kinesin-1 (endogenous, Neuro2a), Q61768;O88447 (chain, as listed by the source, chain 2 of 2): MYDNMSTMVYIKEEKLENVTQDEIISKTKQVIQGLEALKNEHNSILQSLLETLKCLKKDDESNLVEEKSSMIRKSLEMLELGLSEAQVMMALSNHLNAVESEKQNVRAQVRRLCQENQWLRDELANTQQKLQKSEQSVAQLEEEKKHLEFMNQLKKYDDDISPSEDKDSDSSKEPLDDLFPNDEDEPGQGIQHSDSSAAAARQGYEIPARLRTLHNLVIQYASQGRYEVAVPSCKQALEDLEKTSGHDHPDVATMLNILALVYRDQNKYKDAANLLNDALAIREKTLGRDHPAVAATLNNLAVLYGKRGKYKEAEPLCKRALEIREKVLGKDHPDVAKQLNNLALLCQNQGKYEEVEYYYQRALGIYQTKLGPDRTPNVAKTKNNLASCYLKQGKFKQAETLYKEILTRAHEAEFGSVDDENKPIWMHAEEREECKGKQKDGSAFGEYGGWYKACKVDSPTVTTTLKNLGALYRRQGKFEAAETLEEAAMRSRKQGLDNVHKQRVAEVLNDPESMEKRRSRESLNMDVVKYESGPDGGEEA

| Binder | percent of parent |
| --- | --- |
| GFP-JIP1-WT, Q9WVI9-1 V581A (protein) MAERESGLGGGAASPPAASPFLGLHIASPPNFRLTHDISLEEFEDEDLSEITDECGISLQCKDTLSLRPPRAGLLSAGSSGSAGSRLQAEMLQMDLIDAAGDTPGAEDDEEEEDDELAAQRPGVGPPKAESNQDPAPRSQGQGPGTGSGDTYRPKRPTTLNLFPQVPRSQDTLNNNSLGKKHSWQDRVSRSSSPLKTGEQTPPHEHICLSDELPPQGSPVPTQDRGTSTDSPCRRSAATQMAPPSGPPATAPGGRGHSHRDRIHYQADVRLEATEEIYLTPVQRPPDPAEPTSTFMPPTESRMSVSSDPDPAAYSVTAGRPHPSISEEDEGFDCLSSPERAEPPGGGWRGSLGEPPPPPRASLSSDTSALSYDSVKYTLVVDEHAQLELVSLRPCFGDYSDESDSATVYDNCASASSPYESAIGEEYEEAPQPRPPTCLSEDSTPDEPDVHFSKKFLNVFMSGRSRSSSAESFGLFSCVINGEEHEQTHRAIFRFVPRHEDELELEVDDPLLVELQAEDYWYEAYNMRTGARGVFPAYYAIEVTKEPEHMAALAKNSDWIDQFRVKFLGSVQVPYHKGNDALCAAMQKIATTRRLTVHFNPPSSCVLEISVRGVKIGVKADDALEAKGNKCSHFFQLKNISFCGYHPKNNKYFGFITKHPADHRFACHVFVSEDSTKALAESVGRAFQQFYKQFVEYTCPTEDIYLE | 13.4 |
| GFP-JIP1-WT, Q9WVI9-1 F687V (protein) MAERESGLGGGAASPPAASPFLGLHIASPPNFRLTHDISLEEFEDEDLSEITDECGISLQCKDTLSLRPPRAGLLSAGSSGSAGSRLQAEMLQMDLIDAAGDTPGAEDDEEEEDDELAAQRPGVGPPKAESNQDPAPRSQGQGPGTGSGDTYRPKRPTTLNLFPQVPRSQDTLNNNSLGKKHSWQDRVSRSSSPLKTGEQTPPHEHICLSDELPPQGSPVPTQDRGTSTDSPCRRSAATQMAPPSGPPATAPGGRGHSHRDRIHYQADVRLEATEEIYLTPVQRPPDPAEPTSTFMPPTESRMSVSSDPDPAAYSVTAGRPHPSISEEDEGFDCLSSPERAEPPGGGWRGSLGEPPPPPRASLSSDTSALSYDSVKYTLVVDEHAQLELVSLRPCFGDYSDESDSATVYDNCASASSPYESAIGEEYEEAPQPRPPTCLSEDSTPDEPDVHFSKKFLNVFMSGRSRSSSAESFGLFSCVINGEEHEQTHRAIFRFVPRHEDELELEVDDPLLVELQAEDYWYEAYNMRTGARGVFPAYYAIEVTKEPEHMAALAKNSDWIDQFRVKFLGSVQVPYHKGNDVLCAAMQKIATTRRLTVHFNPPSSCVLEISVRGVKIGVKADDALEAKGNKCSHFFQLKNISFCGYHPKNNKYFGFITKHPADHRFACHVFVSEDSTKALAESVGRAVQQFYKQFVEYTCPTEDIYLE | 25.4 |
| GFP-JIP1-WT, Q9WVI9-1 F642V (protein) MAERESGLGGGAASPPAASPFLGLHIASPPNFRLTHDISLEEFEDEDLSEITDECGISLQCKDTLSLRPPRAGLLSAGSSGSAGSRLQAEMLQMDLIDAAGDTPGAEDDEEEEDDELAAQRPGVGPPKAESNQDPAPRSQGQGPGTGSGDTYRPKRPTTLNLFPQVPRSQDTLNNNSLGKKHSWQDRVSRSSSPLKTGEQTPPHEHICLSDELPPQGSPVPTQDRGTSTDSPCRRSAATQMAPPSGPPATAPGGRGHSHRDRIHYQADVRLEATEEIYLTPVQRPPDPAEPTSTFMPPTESRMSVSSDPDPAAYSVTAGRPHPSISEEDEGFDCLSSPERAEPPGGGWRGSLGEPPPPPRASLSSDTSALSYDSVKYTLVVDEHAQLELVSLRPCFGDYSDESDSATVYDNCASASSPYESAIGEEYEEAPQPRPPTCLSEDSTPDEPDVHFSKKFLNVFMSGRSRSSSAESFGLFSCVINGEEHEQTHRAIFRFVPRHEDELELEVDDPLLVELQAEDYWYEAYNMRTGARGVFPAYYAIEVTKEPEHMAALAKNSDWIDQFRVKFLGSVQVPYHKGNDVLCAAMQKIATTRRLTVHFNPPSSCVLEISVRGVKIGVKADDALEAKGNKCSHFFQLKNISVCGYHPKNNKYFGFITKHPADHRFACHVFVSEDSTKALAESVGRAFQQFYKQFVEYTCPTEDIYLE | 3.7 |
